Numbering of substitutions follows the chain as printed.
B1: v29451: humanized anti-NaPi2b IgG1/kappa antibody H2L3; VH SEQ ID NO:25, VL SEQ ID NO:30 (antibody, V domains shown)
VH: QVQLVQSGAEVKKPGASVKVSCKASGFTFTSYNVHWVRQAPGQGLEWIAAISPGNGDLSYAQKFQGRVTMTVDTSTSTVYMELSSLRSEDTAVYYCARGRTGMGAVDYWGQGTLVTVSS
VL: DVQMTQSPSSLSASVGDRVTITCRASQDVYSYLNWYQQKPGKAVKLLIYYTSRLQSGVPSRFSGSGSGTDYTLTISSLQPEDIATYYCQQYNIFPWTFGQGTKLEIK
modifications: v29451, v29455, v29459 VH (H2); v29449, v29450, v29451, v29452 VL (L3)
B2: v29453: humanized anti-NaPi2b IgG1/kappa antibody H4L2; VH SEQ ID NO:27, VL SEQ ID NO:29 (antibody, V domains shown)
VH: B1 VH with V20M, V68A, M70L, T74R, V79A
VL: B1 VL with I83F
modifications: v29449, v29453, v29457 VH (H4); v29453, v29454, v29455, v29456 VL (L2)
B3: v29454: humanized anti-NaPi2b IgG1/kappa antibody H3L2; VH SEQ ID NO:26, VL SEQ ID NO:29 (antibody, V domains shown)
VH: B1 VH with V20M, V68A, M70L, V79A
VL: B1 VL with I83F
modifications: v29450, v29454, v29458 VH (H3); v29453, v29454, v29455, v29456 VL (L2)
B4: v29455: humanized anti-NaPi2b IgG1/kappa antibody H2L2; VH SEQ ID NO:25, VL SEQ ID NO:29 (antibody, V domains shown)
VH: B1 VH
VL: B1 VL with I83F
modifications: v29451, v29455, v29459 VH (H2); v29453, v29454, v29455, v29456 VL (L2)
B5: v29457: humanized anti-NaPi2b IgG1/kappa antibody H4L1; VH SEQ ID NO:27, VL SEQ ID NO:28 (antibody, V domains shown)
VH: B1 VH with V20M, V68A, M70L, T74R, V79A
VL: B1 VL with V2I, V44P, Y71F, I83F
modifications: v29449, v29453, v29457 VH (H4); v29457, v29458, v29459, v29460 VL (L1)
B6: v29458: humanized anti-NaPi2b IgG1/kappa antibody H3L1; VH SEQ ID NO:26, VL SEQ ID NO:28 (antibody, V domains shown)
VH: B1 VH with V20M, V68A, M70L, V79A
VL: B1 VL with V2I, V44P, Y71F, I83F
modifications: v29450, v29454, v29458 VH (H3); v29457, v29458, v29459, v29460 VL (L1)
B7: v29459: humanized anti-NaPi2b IgG1/kappa antibody H2L1; VH SEQ ID NO:25, VL SEQ ID NO:28 (antibody, V domains shown)
VH: B1 VH
VL: B1 VL with V2I, V44P, Y71F, I83F
modifications: v29451, v29455, v29459 VH (H2); v29457, v29458, v29459, v29460 VL (L1)
B8: v29460: humanized anti-NaPi2b IgG1/kappa antibody H1L1; VH SEQ ID NO:24, VL SEQ ID NO:28 (antibody, V domains shown)
VH: B1 VH with I48M, A49G, V72R
VL: B1 VL with V2I, V44P, Y71F, I83F
modifications: v29452, v29456, v29460 VH (H1); v29457, v29458, v29459, v29460 VL (L1)
B9: v29449: humanized anti-NaPi2b IgG1/kappa antibody H4L3; VH SEQ ID NO:27, VL SEQ ID NO:30 (antibody, V domains shown)
VH: B1 VH with V20M, V68A, M70L, T74R, V79A
VL: B1 VL
modifications: v29449, v29453, v29457 VH (H4); v29449, v29450, v29451, v29452 VL (L3)
B10: v29450: humanized anti-NaPi2b IgG1/kappa antibody H3L3; VH SEQ ID NO:26, VL SEQ ID NO:30 (antibody, V domains shown)
VH: B1 VH with V20M, V68A, M70L, V79A
VL: B1 VL
modifications: v29450, v29454, v29458 VH (H3); v29449, v29450, v29451, v29452 VL (L3)

How the values were obtained:
[1] = target: T1, NaPi2b expressed on IGROV-1 cells (Homo sapiens, UniProt O95436); test: Cellular binding of bivalent antibodies to IGROV-1 cells by flow cytometry (Example 13); details: IGROV-1, 24 hours at 4° C.; NB = no cellular binding
T1 construct: IGROV-1 cells express endogenous NaPi2b at a high level; endogenous in cells; host or cells: IGROV-1
T1 sequence (O95436 1-690): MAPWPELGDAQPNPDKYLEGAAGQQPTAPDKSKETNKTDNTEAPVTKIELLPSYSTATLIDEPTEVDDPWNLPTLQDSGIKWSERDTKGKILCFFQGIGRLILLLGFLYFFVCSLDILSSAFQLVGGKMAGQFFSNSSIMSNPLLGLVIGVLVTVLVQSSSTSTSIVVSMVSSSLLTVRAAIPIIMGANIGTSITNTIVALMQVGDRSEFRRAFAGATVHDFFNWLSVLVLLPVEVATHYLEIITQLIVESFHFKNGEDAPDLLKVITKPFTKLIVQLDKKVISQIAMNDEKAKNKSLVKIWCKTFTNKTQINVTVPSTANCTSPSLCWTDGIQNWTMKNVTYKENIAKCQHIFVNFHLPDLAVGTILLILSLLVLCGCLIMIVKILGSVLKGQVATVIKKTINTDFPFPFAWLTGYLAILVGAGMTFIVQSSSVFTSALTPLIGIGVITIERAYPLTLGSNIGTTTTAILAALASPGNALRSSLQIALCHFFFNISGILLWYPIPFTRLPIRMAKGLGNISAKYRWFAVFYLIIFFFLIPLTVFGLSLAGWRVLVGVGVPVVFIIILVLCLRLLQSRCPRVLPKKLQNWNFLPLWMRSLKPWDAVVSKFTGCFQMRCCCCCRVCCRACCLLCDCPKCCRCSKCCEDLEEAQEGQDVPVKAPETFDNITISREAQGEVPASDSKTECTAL
Protocol: IGROV-1 cells express endogenous NaPi2b at a high level.
Briefly, cells were seeded at 50,000 cells/well in conical-bottom 96-well plates and treated with test antibody for 24 hours at 4° C. to prevent internalization. Palivizumab (anti-RSV antibody, v22277) was included as a negative control. […] Following incubation, cells were washed and stained with anti-Human IgG Fc AF647 conjugate (Jackson Immuno Research Labs, West Grove, PA; Cat. No. 109-605-098) at 4° C. for 30 min. Following incubation and washing, fluorescence was detected by flow cytometry on a BD LSRFortessa™ Cell Analyzer (BD Biosciences, Franklin Lake, NJ) with 1,000 minimum events collected per well. The AF647/APC-A GeoMean (fluorescence signal geometric mean, proportional to anti-Human AF647 binding) was calculated for the live cell population using FlowJo™ Version 10.8.1 (BD Biosciences, Franklin Lake, NJ) and plotted for each test antibody using GraphPad Prism Version 9 (GraphPad Software, San Diego, CA).

[2] = Thermal stability by differential scanning calorimetry (DSC); type: physicochemical; details: 0.4 mg/mL in PBS, scan 20° C. to 100° C. at 60° C./hr
Protocol: The thermal stability of the humanized antibody variants was assessed by differential scanning calorimetry (DSC) as described below.
400 μL of purified samples primarily at concentrations of 0.4 mg/mL in PBS were used for DSC analysis with a VP-Capillary DSC (Malvern Panalytical Inc., Westborough, MA). At the start of each DSC run, 5 buffer blank injections were performed to stabilize the baseline, and a buffer injection was placed before each sample injection for referencing. Each sample was scanned from 20° C. to 100° C. at a 60° C./hr rate, with low feedback, 8 sec filter, 3 min pre-scan thermostat, and 70 psi nitrogen pressure. The resulting thermograms were referenced and analyzed using Origin 7 software (OriginLab Corporation, Northampton, MA) to determine melting temperature (Tm) as an indicator of thermal stability.

Molecule	Bmax (MFI) [1]	Curve Hill Slope (h) [1]	Fab Tm [2] [°C]
B1	46,170 MFI	1.1	83.0
B2	44,480 MFI	1.2	78.9
B3	42,278 MFI	1.0	79.7
B4	41,917 MFI	1.1	81.5
B5	44,539 MFI	1.0	80.5
B6	40,793 MFI	1.1	81.6
B7	40,941 MFI	1.2	83.1
B8	40,071 MFI	1.2	80.3
B9	44,460 MFI	1.3	80.0
B10	43,809 MFI	1.2	81.0

Reference: patent US20250277030A1, “ANTI-NAPI2B ANTIBODIES AND METHODS OF USE” (Zymeworks BC Inc., priority 2022, published 2025)
